The record followed here is US20090124564A1 (YEDA RESEARCH AND DEVELOPMENT, published 2009).

This experiment addresses T1, mouse BCL-XL (mouse, UniProt Q64373 1-233).
T1 construct: whole, on cells; In mitochondria of FL5.12-BCL-XL cells
The experiment in a line: BSOCOES cross-linking in TNFα-treated FL5.12-BCL-XL cells, excised 45 kDa gel section, alkaline reversal, Western blots. How it is done: FIG. 16a-FL5.12-BCL-XL cells were induced for 5 hours in the presence TNFα/CHX (lanes 3 and 4) or were remained un-induced (lanes 1 and 2), following which mitochondria were prepared from the cells and were treated with the BSOCOES cross-linker (+) (lanes 2 and 4) or remained untreated (−) (lanes 1 and 3). At the end of the incubation, the membranes were lysed and were size-fractionated by SDS-PAGE and immunoblotted using anti-BID Abs. FIGS. 16b-d—The experiment presented in FIG. 16a was repeated and the gel sections corresponding to the position of the 45 kDa band in lanes 3 and 4 (FIG. 16a; marked by boxes) were excised, incubated in alkaline conditions, and later resolved as described in FIGS. 12a-c. Lane 1—excised gel band from lane 3 of the gel presented in FIG. 16a; lane 2—excised gel band from lane 4 of the gel presented in FIG. 16a. […] The asterisk marks cross-reactive substances that might have been released from the gel sections.
To assess whether this band represented a complex between tBID (15 kDa) and BCL-XL (30 kDa), the experiment was repeated and the gel sections corresponding to the position of the 45 kDa band in lanes 3 and 4 (marked by boxes in FIG. 16a) were excised, incubated in alkaline conditions, and later resolved as described in Example 7, hereinabove and in FIGS. 12a-c.

T1 sequence (Q64373 whole entry): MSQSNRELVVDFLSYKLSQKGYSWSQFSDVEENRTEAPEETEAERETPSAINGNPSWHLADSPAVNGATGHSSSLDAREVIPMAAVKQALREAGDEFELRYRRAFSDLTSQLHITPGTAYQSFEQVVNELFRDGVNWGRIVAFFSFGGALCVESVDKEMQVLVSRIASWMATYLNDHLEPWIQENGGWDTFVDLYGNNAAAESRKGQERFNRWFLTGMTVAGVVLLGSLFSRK

B1: tBID, endogenous, in TNFα/CHX-treated FL5.12 cells (other)
chain: GSQASRSFNQGRIEPDSESQEEIIHNIARHLAQIGDEMDHNIQPTLVRQLAAQFMNGSLSEEDKRNCLAKALDEVKTAFPRDMENDKAMLIMTMLLAKKVASHAPSLLRDVFHTTVNFINQNLFSYVRNLVRNEMD
notes: FL5.12 is a murine cell line; also called endogenous tBID
Take B1: the binding result is “binds”.
